The text below walks through data of the supplement of paper PMC10567573.

B1: SLC35F2 (parent)
chain: SFMPLVIKVTSATSVNLGILTADL
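Note: lentivirally expressed fusions sorted by FACS into six bins by GFP to DsRed ratio, PSI derived from sequencing read proportions per bin multiplied by bin number.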

In this data set the parent is B1. Description: protein stability index of a GFP-peptide fusion (GPS, HEK-293T) (PSI 1-6); higher = more stable. The following applies: c terminus: a fixed tail appended.
Regarding SFMTLVIKVTSATSVNLGILTADL [P4T], the protein stability index amounted to 2.71.
Under SFMWLVIKVTSATSVNLGILTADL [P4W] stands 3.07; under SFMSLVIKVTSATSVNLGILTADL [P4S], 1.73.
Under SFMVLVIKVTSATSVNLGILTADL [P4V] stands 3.1; under SFMPLVIKVGSATSVNLGILTADL [T10G], 3.08; under SFMPLVIKVYSATSVNLGILTADL [T10Y], 2.64.
Under SFMPLVIKVHSATSVNLGILTADL [T10H] stands 3.25; under SFMPLVIKVSSATSVNLGILTADL [T10S], 2.65; under SFMPLVIKVESATSVNLGILTADL [T10E], 2.98.
SFMPLVIKVDSATSVNLGILTADL [T10D]: the protein stability index stood at 3.46.
Under SFMPLVIKVNSATSVNLGILTADL [T10N] stands 2.43.
Under SFMPLVIKVMSATSVNLGILTADL [T10M] stands 2.46; under SFMPLVIKVCSATSVNLGILTADL [T10C], 2.93; under SFMPLVIKVRSATSVNLGILTADL [T10R], 2.69.
Under SFMPLVIKVFSATSVNLGILTADL [T10F] stands 3.67.
As to SFMPLVIKVQSATSVNLGILTADL [T10Q], the protein stability index is 3.38.
Under SFMPLVIKVISATSVNLGILTADL [T10I] stands 4.8; under SFMPLVIKVKSATSVNLGILTADL [T10K], 2.12; under SFMPLVIKVPSATSVNLGILTADL [T10P], 1.31.
Under SFMPLVIKVWSATSVNLGILTADL [T10W] stands 3.57; under SFMPLVIKVVSATSVNLGILTADL [T10V], 3.4.
Under SFMPLVIKVTSATFVNLGILTADL [S14F] stands 2.94; under SFMPLVIKVTSATWVNLGILTADL [S14W], 2.61.
For SFMPLVIKVTSATPVNLGILTADL [S14P], the protein stability index was 2.44.
For the variant SFMPLVIKVTSATAVNLGILTADL [S14A], the protein stability index turned out to be 2.47.
Consider SFMPLVIKVTSATLVNLGILTADL [S14L], for which the protein stability index is 2.15.
Under SFMPLVIKVTSATMVNLGILTADL [S14M] stands 2.72.
Under SFMPLVIKVTSATHVNLGILTADL [S14H] stands 1.79; under SFMPLVIKVTSATCVNLGILTADL [S14C], 3.32.
Under SFMPLVIKVTSATRVNLGILTADL [S14R] stands 2.42; under SFMPLVIKVTSATNVNLGILTADL [S14N], 3.45; under SFMPLVIKVTSATQVNLGILTADL [S14Q], 1.71.
As to SFMPGVIKVTSATSVNLGILTADL [L5G], the protein stability index is 1.68.
Under SFMPPVIKVTSATSVNLGILTADL [L5P] stands 2.55; under SFMPNVIKVTSATSVNLGILTADL [L5N], 2.24; under SFMPWVIKVTSATSVNLGILTADL [L5W], 2.75.
Under SFMPVVIKVTSATSVNLGILTADL [L5V] stands 2.41.
Under SFMPCVIKVTSATSVNLGILTADL [L5C] stands 3.74; under SFMPRVIKVTSATSVNLGILTADL [L5R], 1.65.
In the case of SFMPDVIKVTSATSVNLGILTADL [L5D], the protein stability index amounted to 1.88.
Under SFMPTVIKVTSATSVNLGILTADL [L5T] stands 3.25; under SFMPSVIKVTSATSVNLGILTADL [L5S], 1.47; under SFMPAVIKVTSATSVNLGILTADL [L5A], 3.18.
On to SFMPEVIKVTSATSVNLGILTADL [L5E], for which the protein stability index was determined as 1.51.
Under SFMPMVIKVTSATSVNLGILTADL [L5M] stands 2.94; under SFMPYVIKVTSATSVNLGILTADL [L5Y], 3.46; under SFMPIVIKVTSATSVNLGILTADL [L5I], 2.1.
Under SFMPQVIKVTSATSVNLGILTADL [L5Q] stands 2.19.
Under SFMPHVIKVTSATSVNLGILTADL [L5H] stands 2.28.
In the case of SFMPKVIKVTSATSVNLGILTADL [L5K], the protein stability index worked out at 1.88.
Consider SFMPLVIKVTSKTSVNLGILTADL [A12K], for which the protein stability index came out at 4.17.
For the variant SFMPLVIKVTSETSVNLGILTADL [A12E], the protein stability index amounted to 3.09.
Under SFMPLVIKVTSSTSVNLGILTADL [A12S] stands 1.89; under SFMPLVIKVTSITSVNLGILTADL [A12I], 2.85; under SFMPLVIKVTSVTSVNLGILTADL [A12V], 2.75.
For the variant SFMPLVIKVTSGTSVNLGILTADL [A12G], the protein stability index is 3.33.
Under SFMPLVIKVTSYTSVNLGILTADL [A12Y] stands 1.73; under SFMPLVIKVTSWTSVNLGILTADL [A12W], 1.91.
Under SFMPLVIKVTSRTSVNLGILTADL [A12R] stands 2.75; under SFMPLVIKVTSHTSVNLGILTADL [A12H], 2.37.
Under SFMPLVIKVTSNTSVNLGILTADL [A12N] stands 2.58; under SFMPLVIKVTSQTSVNLGILTADL [A12Q], 2.82.
For SFMPLVIKVTSTTSVNLGILTADL [A12T], the protein stability index stood at 2.89.
Under SFMPLVIKVTSLTSVNLGILTADL [A12L] stands 3.32; under SFMPLVIKVTSMTSVNLGILTADL [A12M], 2.9; under SFMPLVIKVTSDTSVNLGILTADL [A12D], 2.82.
In the case of SFMPLVIKVTSFTSVNLGILTADL [A12F], the protein stability index stood at 2.25.
Under SFMPLVIKVTSCTSVNLGILTADL [A12C] stands 4.33.
On to SFMPLVIKVTSPTSVNLGILTADL [A12P], for which the protein stability index came out at 1.22.
For SFMPLVIKVTSATSGNLGILTADL [V15G], the protein stability index stood at 2.91.
Under SFMPLVIKVTSATSMNLGILTADL [V15M] stands 3.77; under SFMPLVIKVTSATSCNLGILTADL [V15C], 2.21; under SFMPLVIKVTSATSSNLGILTADL [V15S], 3.78.
Under SFMPLVIKVTSATSHNLGILTADL [V15H] stands 2.88.
Turning to SFMPLVIKVTSATSTNLGILTADL [V15T], the protein stability index was found to be 3.48.
Take SFMPLVIKVTSATSANLGILTADL [V15A]: the protein stability index came to 3.38.
Turning to SFMPLVIKVTSATSINLGILTADL [V15I], the protein stability index worked out at 1.93.
In the case of SFMPLVIKVTSATSNNLGILTADL [V15N], the protein stability index came out at 2.58.
Under SFMPLVIKVTSATSLNLGILTADL [V15L] stands 3.01; under SFMPLVIKVTSATSFNLGILTADL [V15F], 3.58.
Consider SFMPLVIKVTSATSRNLGILTADL [V15R], for which the protein stability index was 3.44.
With SFMPLVIKVTSATSPNLGILTADL [V15P], the protein stability index came to 2.73.
Under SFMPLVIKVTSATSDNLGILTADL [V15D] stands 3.98; under SFMPLVIKVTSATSKNLGILTADL [V15K], 3.59.
Under SFMPLVRKVTSATSVNLGILTADL [I7R] stands 2.16; under SFMPLVKKVTSATSVNLGILTADL [I7K], 1.76.
Under SFMPLVGKVTSATSVNLGILTADL [I7G] stands 2.17.
For SFMPLVFKVTSATSVNLGILTADL [I7F], the protein stability index was determined as 3.03.
Under SFMPLVQKVTSATSVNLGILTADL [I7Q] stands 2.26; under SFMPLVLKVTSATSVNLGILTADL [I7L], 3.42; under SFMPLVCKVTSATSVNLGILTADL [I7C], 2.11.
Under SFMPLVVKVTSATSVNLGILTADL [I7V] stands 3.05.
Under SFMPLVTKVTSATSVNLGILTADL [I7T] stands 2.19; under SFMPLVWKVTSATSVNLGILTADL [I7W], 3.77.
